Non-standard residues stand in square brackets, D forms with d. No end group written: not given here. *: point of attachment. Biotin = O=C1N[C@H]2[C@H](CS[C@H]2CCCCC(=O)*)N1; pY = N[C@@H](Cc1ccc(OP(=O)(O)O)cc1)C(=O)O
Experiments:
Assay in all cases: streptavidin-biotin peptide pull down, anti-GST Western blot
[1] = biological target: T1, GST-FYN-SH2 (wild type FYN SH2 domain, codons 148-231, N-terminal GST tag) (UniProt P06241 148-231)
T1 construct: range 148-231; Expressed in E. coli Rosetta 2(DE3) and purified on glutathione Sepharose; also called GST-SH2-FYN; GST-FYN SH2 domain; not shown: N-terminal GST tag from the pGEX4-T1 vector
T1 sequence (P06241 148-231): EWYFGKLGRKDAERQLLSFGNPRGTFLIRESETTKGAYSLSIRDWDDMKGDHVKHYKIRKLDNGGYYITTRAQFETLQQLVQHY
Protocol: (§1) GST-tagged FYN SH2 domain proteins were purified by binding them to immobilized glutathione Sepharose beads (Thermo scientific) and eluting them with 50 mM reduced Glutathione, 50 mM Tris, pH 7.4, 150 mM NaCl, 5% glycerol, 5 mM β-mercaptoethanol. Protein expression and purity were assessed by Coomassie staining. Binding assay was performed with Pull-Down Biotinylated Protein-protein Interaction Kit (Thermo scientific) according to the manufacturer's instructions using an amino acid 527-537 FYN biotinylated peptide (biotin-[…])(SEQ ID NO: 1); an amino acid 527-537 pY531 FYN biotinylated peptide (biotin-TEPQpYQPGENL)(SEQ ID NO: 2) and an amino acid 527-537 […] FYN biotinylated peptide (biotin-[…])(SEQ ID NO: 3) (Anaspec Inc). Synthetic biotinylated peptides were incubated with purified GST-FYN SH2 domain, mutant FYN SH2 domain or GST alone for 1 h at 4° C. Interacting proteins were resolved on 10% SDS-polyacrylamide gel electrophoresis (SDS-PAGE) and transferred to a PVDF membrane and subjected to Western blot with an anti-GST antibody.
(§2) In addition, structure model analysis of FYN and FYN mutant proteins further supported this hypothesis. (See FIG. 4C which is a molecular ribbon representation of wild type FYN protein structure showing the positioning of the FYN SH2 domain and the C terminal Tyr531 phosphosite and FIG. 4D which illustrates structure modeling of FYN Tyr531His, FYN Arg176Cys and FYN Leu174Arg mutant proteins.) The interaction between GST-FYN-SH2 recombinant proteins and biotinylated C-terminal FYN peptides encompassing the position Tyr531 was analyzed. In these assays, wild type GST-FYN-SH2 was effectively pulled down with a Tyr531 phosphopeptide, but not with the corresponding unphosphorylated sequence or with a peptide containing a Tyr531His substitution. […]

GST-SH2-FYN Leu174Arg = biological target: T2, GST-SH2-FYN Leu174Arg (Homo sapiens (Human), UniProt P06241 148-231)
T2 construct: also called GST-FYN-SH2 L174R; not shown: The N-terminal GST tag and the pGEX4-T1 linker
T2 sequence (P06241 148-231 L174R limits assumed): as the sequence (P06241 148-231) above, with L27R counted along it
Protocol: as §1, §2

GST-SH2-FYN Arg176Cys = biological target: T3, GST-SH2-FYN Arg176Cys (Homo sapiens (Human), UniProt P06241 148-231)
T3 construct: also called GST-FYN-SH2 R176C; not shown: The N-terminal GST tag and the pGEX4-T1 linker
T3 sequence (P06241 148-231 R176C limits assumed): as the sequence (P06241 148-231) above, with R29C counted along it
Protocol: as §1, §2

| Binder | binding result [1] | binding result (GST-SH2-FYN Leu174Arg) | binding result (GST-SH2-FYN Arg176Cys) |
| --- | --- | --- | --- |
| Biotin-TEPQHQPGENL (also called mutant Tyr531His FYN C-terminal peptide) [amino acid 527-537 Y51H FYN biotinylated peptide (biotin-TEPQHQPGENL)] | no binding |  |  |
| Biotin-TEPQ[pY]QPGENL (Synthetic peptide (Anaspec Inc); also called Tyr531 phosphopeptide; P-Tyr531 FYN C-terminal peptide) [amino acid 527-537 pY531 FYN biotinylated peptide (biotin-TEPQpYQPGENL)] |  | no binding | no binding |

Reference: patent US20160102367A1 (TRUSTEES OF COLUMBIA UNIVERSITY IN THE CITY OF NEW YORK, published 2016)
